Data from article PMC11638070.

Target: mitochondrial heat shock protein 60 V72I (mtHsp60^V72I) (human) (UniProt P10809)

steady-state ATPase activity of mtHsp60^V72I (500 nM monomer) against mtHsp10 (twofold series from 10 µM monomer); ~21 pmol ATP per min without mtHsp10: 31 pmol/min
Substance: mtHsp10 (from UniProt P61604 1-102) (natural protein)
